From PMC9133036 (Nature Communications, 2022) come the findings set out here.

In this assay the target is T1, full-length wild-type human OX2R (pCDNA3, HEK293) (human) (UniProt O43614).
T1 sequence: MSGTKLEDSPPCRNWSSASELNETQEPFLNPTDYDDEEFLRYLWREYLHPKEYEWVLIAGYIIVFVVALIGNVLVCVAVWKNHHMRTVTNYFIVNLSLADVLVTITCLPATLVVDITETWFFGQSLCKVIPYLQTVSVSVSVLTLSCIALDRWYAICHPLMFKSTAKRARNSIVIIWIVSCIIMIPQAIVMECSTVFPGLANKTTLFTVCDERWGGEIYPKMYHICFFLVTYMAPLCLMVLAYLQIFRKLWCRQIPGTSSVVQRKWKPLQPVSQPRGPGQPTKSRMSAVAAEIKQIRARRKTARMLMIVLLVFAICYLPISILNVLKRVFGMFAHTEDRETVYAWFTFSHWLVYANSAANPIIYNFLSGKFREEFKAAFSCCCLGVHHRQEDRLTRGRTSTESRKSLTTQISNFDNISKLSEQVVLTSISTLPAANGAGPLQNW

Sequence of orexin B (O43612 70-97): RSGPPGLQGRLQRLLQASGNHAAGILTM

In turn, “orexin B (from UniProt O43612 70-97) (peptide)” returned a Gq-mediated inositol phosphate (IP) accumulation in HEK293 cells transfected with OX2R and Gαq; EC50 of orexin B of 8.2 nM.
